Values of other authors as cited in US20210077665A1, “METHODS AND DEVICES FOR LYMPHATIC TARGETING” (priority 2005, published 2021).

Experiments:
[1] = at 44 h; pleural injection

Compound	uptake in mediastinal nodes [1]	IC50 (H460 lung cancer cells)
111In-avidin: 111In labeled avidin injected in the pleural space (literature)	3.3%	–
CC(=O)O[C@H]1C(=O)[C@@]2(C)[C@H]([C@H](OC(=O)c3ccccc3)[C@]3(O)C[C@H](OC(=O)[C@H](O)[C@@H](NC(=O)c4ccccc4)c4ccccc4)C(C)=C1C3(C)C)[C@]1(OC(C)=O)CO[C@@H]1C[C@@H]2O [Paclitaxel, paclitaxel]	–	5 nM
